For one substance, other: log2 fold change results are on record in paper PMC9537309.

Common to all, as to assay: FLAG immunoprecipitation and LC/ESI-MS/MS
Common to all, as to conditions: HEK293T cells, three biological replicates; read off a plot

The target in experiment [1] is FUBP3.
The target in experiment [2] is HNRNPA2B1.
In experiment [3] the target is ILF3.
In experiment [4] the target is MYH9.
The target in experiment [5] is SART3.

For the substance “FLAG-tagged DND1 wild-type (Dead End, full-length human protein 1-353) (from UniProt Q8IYX4) R98A”, the other: log2 fold change is -2.5 in experiment [1]; -1.3 in experiment [2]; -1.6 in experiment [3]; 0.43 in experiment [4]; -2.5 in experiment [5].
